Measurements from article PMC2937010.

Molecular target: RMI1 OB2 domain (C-terminal OB fold of RMI1, residues 473-625) (human) (UniProt Q9H9A7)
Assay: SEC

stoichiometry N: 1
Substance: RMI2 (RMI core complex, wild type) (natural protein)
